The source of these data is US20110287001A1, “METHOD OF TREATMENT” (TETRALOGIC PHARMACEUTICALS, priority 2008, published 2011).

Holding throughout (assay): ATPLITE cell viability, TRAIL and compound X with or without anti-human TNFα antibody
Assay type in all cases: cell-based

For assay [1], the system named is A375 melanoma cells. The note with it: A375, 48 hours. The protocol: (§1) Cells were seeded in flat-bottom 96-well plates (clear bottom, white walls) at a concentration of 1×10^4 cells/well and incubated overnight at 37° C., 5% CO2. The following day, cells were stimulated with TRAIL at a concentration ranging from 0.24 ng/ml to 1 μg/ml (4-fold dilutions) in combination with IAP inhibitor compound X at a concentration ranging from 0.01 nM to […] (10-fold dilutions).
(§2) A blocking antibody to human TNFα (R&D Systems, Minneapolis, Minn.) was added to some cultures at a final concentration of 5 μg/ml two hours before the addition of the combination of TRAIL and compound X. Final culture volumes were 100 μl
(§3) After 48 hours, cell viability was determined using the ATPLITE™ assay, an adenosine triphosphate (ATP) monitoring system based on firefly (Photinus pyralis) luciferase (Perkin Elmer, Waltham, Mass.) according to the manufacturer's recommendations. Relative light units (RLU) were measured using an LJL Biosystems Analyst HT plate reader (Molecular Devices, Sunnyvale, Calif.). The percent of surviving cells was calculated as follows: (experimental RLU/control RLU)×100. The control RLU was determined by testing untreated cells.

In assay [2] the test system is HCT116 colon cancer cells. As for the experimental part: as §1, §2, §3
The subject of assay [3] is SKOV-3 ovarian cancer cells. The settings on record: SKOV-3, 48 hours. As for the experimental part: as §1, §2, §3

B1: TRAIL: TNF-related apoptosis-inducing ligand (TRAIL), TRAIL receptor agonist (protein, UniProt P50591 1-281, looked up)
Tumor necrosis factor ligand …: MAMMEVQGGPSLGQTCVLIVIFTVLLQSLCVAVTYVYFTNELKQMQDKYSKSGIACFLKEDDSYWDPNDEESMNSPCWQVKWQLRQLVRKMILRTSEETISTVQEKQQNISPLVRERGPQRVAAHITGTRGRSNTLSSPNSKNEKALGRKINSWESSRSGHSFLSNLHLRNGELVIHEKGFYYIYSQTYFRFQEEIKENTKNDKQMVQYIYKYTSYPDPILLMKSARNSCWSKDAEYGLYSIYQGGIFELKENDRIFVSVTNEHLIDMDHEASFFGAFLVG
Regarding B1, the single agent killing result in assay [1] was “partialy resistant”. Further, the “single agent-induced cell death” value in assay [2] (HCT116, 48 hours) was “some sensitivity”; in assay [3] it was “resistant”. Further, in assay [2] (HCT116, TRAIL 1 μg/ml, 48 hours), the “surviving cells (percent of control)” value was 40%.
